Test results as given in US20190071480A1 (Biogen, published 2019).
Bridges are numbered along the chain shown (N, C = ends).

How the values were obtained:
[1] = molecular target: T1, extracellular domain of activin receptor type IIB (ActRIIBecd), biotinylated (Homo sapiens (Human), UniProt Q13705 27-117, amino-biotinylated with amine-PEG3-Biotin); test: BIAcore SPR as Example 5 (method not restated); SD ±1.74 nM
T1 construct: immobilised on a streptavidin-coated sensor chip; also called biotinylated ActRIIBecd; extracellular domain of ActRIIB
T1 sequence: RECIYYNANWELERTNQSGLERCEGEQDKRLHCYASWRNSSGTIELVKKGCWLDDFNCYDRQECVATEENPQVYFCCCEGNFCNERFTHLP
Procedure: (§1) Biosensor experiments. In one embodiment, experiments were performed on a BIAcore™ T100/T200 instrument (Pharmacia Biosensor AB) in the multichannel mode (serial flow path involving flow cells 1+2+3+4). Flow rate was 10 μl/min; temperature was 25° C.; and data were recorded at 2.5 points/s. All four segments of a sensor chip CMS were coated with streptavidin (Sigma) to a density of 2000 pg/mm² (2000 resonance units) by the aminocoupling procedure. ActRIIBecd (10 mg) and amine-PEG3-Biotin (10 mg, Pierce, Rockford, Ill.) were dissolved in 200 μl H₂O and 10 mg NaCNBH₃ was added to prepare biotinylated ActRIIBecd. The reaction mixture was heated at 70° C. for 24 h, after that a further 10 mg NaCNBH₃ was added and the reaction was heated at 70° C. for another 24 h. After cooling to room temperature, the mixture was desalted with the spin column (3,000 molecular weight cut off (MWCO)). […] Sensograms were recorded during flow of the analyte (the ActRIIBecd-associated polypeptides (i.e., domains) as previously described) first through flow cell 1 (control) then through flow cell 2 (biotinylated ActRIIBecd). […] The sensograms obtained at 1.11, 3.33, 10, 30, and 90 nM analyte were evaluated for equilibrium binding, association rate, and dissociation rate by using the programs supplied with the instrument (BIA evaluation 2.1; Software Handbook. 1995; Pharmacia Biosensor AB).

[2] = molecular target: T1, extracellular domain of activin …; test: Mean KD column of Table 5; method not restated (BIAcore as Example 5); species also listed in Table 4
Procedure: Biosensor experiments. In one embodiment, experiments were performed on a BIAcore™ T100/T200 instrument (Pharmacia Biosensor AB) in the multichannel mode (serial flow path involving flow cells 1+2+3+4). Flow rate was 10 μl/min; temperature was 25° C.; and data were recorded at 2.5 points/s. All four segments of a sensor chip CMS were coated with streptavidin (Sigma) to a density of 2000 pg/mm² (2000 resonance units) by the aminocoupling procedure. ActRIIBecd (10 mg) and amine-PEG3-Biotin (10 mg, Pierce, Rockford, Ill.) were dissolved in 200 μl H₂O and 10 mg NaCNBH₃ was added to prepare biotinylated ActRIIBecd. The reaction mixture was heated at 70° C. for 24 h, after that a further 10 mg NaCNBH₃ was added and the reaction was heated at 70° C. for another 24 h. After cooling to room temperature, the mixture was desalted with the spin column (3,000 molecular weight cut off (MWCO)). Biotinylated ActRIIBecd was collected, freeze-dried and used for streptavidin (SA) chip preparation. Amino-biotinylated ActRIIBecd was then immobilized independently on flow cells 2-4 for 10 minutes at a flow rate of 5 μL/min and a concentration of 20 μM in 10 mM sodium acetate, pH 4.0, at a density of 50-250 resonance units (RU). The stored polypeptides were dissolved in glycine buffer (2.5 g of glycine, 0.5 g of sucrose, 370 mg of L-glutamate, 10 mg of sodium chloride, and 10 mg of Tween 80 in 100 mL water, pH 4.5) to prepare 10 mg/mL solution and then diluted with previous glycine buffer to prepare analytes with various concentration. Sensograms were recorded during flow of the analyte (the ActRIIBecd-associated polypeptides (i.e., domains) as previously described) first through flow cell 1 (control) then through flow cell 2 (biotinylated ActRIIBecd). The sensogram obtained for flow cell 1 was subtracted from the sensogram obtained for flow cell 2. The sensograms obtained at 1.11, 3.33, 10, 30, and 90 nM analyte were evaluated for equilibrium binding, association rate, and dissociation rate by using the programs supplied with the instrument (BIA evaluation 2.1; Software Handbook. 1995; Pharmacia Biosensor AB).

[3] = molecular target: T1, extracellular domain of activin …; test: BIAcore SPR as Example 5 (method not restated); SD ±2.45 nM
Procedure: as §1

[4] = molecular target: T1, extracellular domain of activin …; test: BIAcore SPR as Example 5 (method not restated); SD ±1.72 nM
Procedure: as §1

[5] = molecular target: T1, extracellular domain of activin …; test: BIAcore SPR as Example 5 (method not restated); SD ±1.37 nM
Procedure: as §1

[6] = molecular target: T1, extracellular domain of activin …; test: BIAcore SPR as Example 5 (method not restated); SD ±1.07 nM
Procedure: as §1

[7] = molecular target: T1, extracellular domain of activin …; test: BIAcore SPR as Example 5 (method not restated); SD ±3.15 nM
Procedure: as §1

[8] = molecular target: T1, extracellular domain of activin …; test: BIAcore SPR, biotinylated ActRIIBecd on chip; SD ±14.11 nM
Procedure: as §1

[9] = molecular target: T1, extracellular domain of activin …; test: BIAcore SPR as Example 5 (method not restated); SD ±1.35 nM
Procedure: as §1

[10] = molecular target: T1, extracellular domain of activin …; test: BIAcore SPR as Example 5 (method not restated); SD ±1.77 nM
Procedure: as §1

[11] = molecular target: T1, extracellular domain of activin …; test: BIAcore SPR as Example 5 (method not restated); SD ±2.10 nM
Procedure: as §1

B1: SEQ ID NO: 254, cysteine pairs C23-C27^a, C58-C91^a, C59-C93^a (designed binder)
chain: VDFKDVGWNDHAVAPPGYHAFYCHGECPFPLADHLNSDNHAIVQTKVNSVNSKDPKACCVPTELSAPSPLYLDENEKPVLKNYQDMVVHGCGCR
modifications: disulfides C23-C27 (intra), C58-C91 (intra), C59-C93 (intra)
- Kd [1]: 17.6 nM
- Kd [2]: 17.6 nM

B2: SEQ ID NO: 268, cysteine pairs C23-C27^a, C65-C65^b, C79-C114^b, C80-C112^b (designed binder)
chain: VDFSDVGWNDWIVAPPGYHAFYCHGECPFPLADHLNSTNHAIVQTLVNSVAQAKHKQRKRLKSSCKRHPLYNSKIPKACCVPTELSAISMLYLDENEKVVLKNYQDMVVEGCGCR
modifications: disulfides C23-C27 (intra), C65-C65 (inter), C79-C114 (inter), C80-C112 (inter)
notes: homodimer by intermolecular disulfide
- Kd [3]: 8.03 nM
- Kd [2]: 8.03 nM

B3: SEQ ID NO: 188, cysteine pairs C44-C48^a (designed binder)
chain: AQAKHKQRKRLKSSCKRHPLYVDFSDVGWNDWIVAPPGYHAFYCHGECPFPLADHLNSTNHAIVQTLVNSV
modifications: disulfides C44-C48 (intra)
- Kd [4]: 21.5 nM
- Kd [2]: 21.5 nM

B4: SEQ ID NO: 292, cysteine pairs C80-C114^a, C79-C112^a, C44-C48^a (designed binder)
chain: GQAKRKGYKRLKSSCKRHPLYVDFKDVGWNDHAVAPPGYHAFYCHGECPFPLADHLNSDNHAIVQTKVNSVNSKDPKACCVPTELSAPSPLYLDENEKPVLKNYQDMVVHGCGCR
modifications: disulfides C80-C114 (intra), C79-C112 (intra), C44-C48 (intra)
- Kd [5]: 6.19 nM
- Kd [2]: 6.19 nM

B5: SEQ ID NO: 348, cysteine pairs C15-C15^b, C29-C62^a, C30-C64^a, C88-C92^a (designed binder)
chain: GQAKRKGYKRLKSSCKRHPLYNSKIPKACCVPTELSAISMLYLDENEKVVLKNYQDMVVEGCGCRVDFSDVGWNDWIVAPPGYHAFYCHGECPFPLADHLNSTNHAIVQTLVNSV
modifications: disulfides C15-C15 (inter), C29-C62 (intra), C30-C64 (intra), C88-C92 (intra)
notes: as for B2
- Kd [6]: 5.1 nM
- Kd [2]: 5.1 nM

B6: SEQ ID NO: 242, cysteine pairs C29-C30^a (designed binder)
chain: GQAKRKGYKRLKSSCKRHPLYNSKDPKACCVPTELSAPSPLYLDENEKPVLKNYQDMVVHGCGCR
modifications: disulfide 29-30
- Kd [7]: 48.7 nM
- Kd [2]: 48.7 nM

B7: SEQ ID NO: 316, cysteine pairs C67-C71^a, C8-C41^a, C9-C43^a, C109-C109^b (designed binder)
chain: NSKDPKACCVPTELSAPSPLYLDENEKPVLKNYQDMVVHGCGCRVDFKDVGWNDHAVAPPGYHAFYCHGECPFPLADHLNSDNHAIVQTKVNSVGQAKRKGYKRLKSSCKRHPLY
modifications: disulfides C67-C71 (intra), C8-C41 (intra), C9-C43 (intra), C109-C109 (inter)
notes: as for B2
- Kd [5]: 5.34 nM
- Kd [2]: 5.34 nM

Binder: TYPASPKPMRWKMRSCACCAGGLRNRTGTV [Clone No. 27 domain (ActRIIBecd-associated polypeptide)]
- Kd [8]: 49.3 nM

Binder: VDFSDVGWNDWIVAPPGYHAFYCHGECPFPLADHLNSTNHAIVQTLVNSV [Clone No. 15 domain (ActRIIBecd-associated polypeptide)]
- Kd [8]: 39.5 nM

B8: SEQ ID NO: 260, cysteine pairs C79-C80^a (designed binder)
chain: AQAKHKQRKRLKSSCKRHPLYVDFSDVGWNDWIVAPPGYHAFYCHGECPFPLADHLNSTNHAIVQTLVNSVNSKIPKACCVPTELSAISMLYLDENEKVVLKNYQDMVVEGCGCR
modifications: disulfides C79-C80 (intra)
- Kd [9]: 29.1 nM
- Kd [2]: 29.1 nM

B9: SEQ ID NO: 260, cysteine pairs C80-C114^a, C79-C112^a, C44-C48^a (designed binder)
chain: AQAKHKQRKRLKSSCKRHPLYVDFSDVGWNDWIVAPPGYHAFYCHGECPFPLADHLNSTNHAIVQTLVNSVNSKIPKACCVPTELSAISMLYLDENEKVVLKNYQDMVVEGCGCR
modifications: disulfides C80-C114 (intra), C79-C112 (intra), C44-C48 (intra)
- Kd [6]: 8.31 nM
- Kd [2]: 8.31 nM

B10: SEQ ID NO: 324, cysteine pairs C15-C15^b, C80-C114^b, C79-C112^b, C44-C48^a (designed binder)
chain: AQAKHKQRKRLKSSCKRHPLYVDFKDVGWNDHAVAPPGYHAFYCHGECPFPLADHLNSDNHAIVQTKVNSVNSKIPKACCVPTELSAISMLYLDENEKVVLKNYQDMVVEGCGCR
modifications: disulfides C15-C15 (inter), C80-C114 (inter), C79-C112 (inter), C44-C48 (intra)
notes: as for B2
- Kd [10]: 9.11 nM
- Kd [2]: 9.11 nM

B11: SEQ ID NO: 324, cysteine pairs C79-C80^a (designed binder)
chain: AQAKHKQRKRLKSSCKRHPLYVDFKDVGWNDHAVAPPGYHAFYCHGECPFPLADHLNSDNHAIVQTKVNSVNSKIPKACCVPTELSAISMLYLDENEKVVLKNYQDMVVEGCGCR
modifications: disulfides C79-C80 (intra)
- Kd [11]: 29.3 nM
- Kd [2]: 29.3 nM

B12: SEQ ID NO: 276, cysteine pairs C67-C71^a, C8-C41^b, C9-C43^b, C109-C109^b (designed binder)
chain: NSKIPKACCVPTELSAISMLYLDENEKVVLKNYQDMVVEGCGCRVDFSDVGWNDWIVAPPGYHAFYCHGECPFPLADHLNSTNHAIVQTLVNSVAQAKHKQRKRLKSSCKRHPLY
modifications: disulfides C67-C71 (intra), C8-C41 (inter), C9-C43 (inter), C109-C109 (inter)
notes: as for B2
- Kd [10]: 8.13 nM
- Kd [2]: 8.13 nM

B13: SEQ ID NO: 236, cysteine pairs C59-C59^b, C8-C41^a, C9-C43^a (designed binder)
chain: NSKDPKACCVPTELSAPSPLYLDENEKPVLKNYQDMVVHGCGCRGQAKRKGYKRLKSSCKRHPLY
modifications: disulfide 8-41, 9-43; also: homodimer via intermolecular C59-C59 disulfide
notes: as for B2
- Kd [11]: 16.2 nM
- Kd [2]: 16.2 nM

B14: SEQ ID NO: 248, cysteine pairs C67-C71^a, C8-C41^a, C9-C43^a (designed binder)
chain: NSKDPKACCVPTELSAPSPLYLDENEKPVLKNYQDMVVHGCGCRVDFKDVGWNDHAVAPPGYHAFYCHGECPFPLADHLNSDNHAIVQTKVNSV
modifications: disulfides C67-C71 (intra), C8-C41 (intra), C9-C43 (intra)
- Kd [1]: 18.5 nM
- Kd [2]: 18.5 nM

B15: SEQ ID NO: 300, cysteine pairs C23-C79^a (designed binder)
chain: VDFKDVGWNDHAVAPPGYHAFYCHGECPFPLADHLNSDNHAIVQTKVNSVGQAKRKGYKRLKSSCKRHPLYNSKDPKACCVPTELSAPSPLYLDENEKPVLKNYQDMVVHGCGCR
modifications: disulfides C23-C79 (intra)
- Kd [3]: 32.7 nM
- Kd [2]: 32.7 nM

B16: SEQ ID NO: 300, cysteine pairs C23-C27^a, C65-C65^b, C79-C112^b, C80-C114^b (designed binder)
chain: VDFKDVGWNDHAVAPPGYHAFYCHGECPFPLADHLNSDNHAIVQTKVNSVGQAKRKGYKRLKSSCKRHPLYNSKDPKACCVPTELSAPSPLYLDENEKPVLKNYQDMVVHGCGCR
modifications: disulfides C23-C27 (intra), C65-C65 (inter), C79-C112 (inter), C80-C114 (inter)
notes: as for B2
- Kd [4]: 6.44 nM
- Kd [2]: 6.44 nM

B17: SEQ ID NO: 284, cysteine pairs C8-C9^a (designed binder)
chain: NSKIPKACCVPTELSAISMLYLDENEKVVLKNYQDMVVEGCGCRAQAKHKQRKRLKSSCKRHPLYVDFSDVGWNDWIVAPPGYHAFYCHGECPFPLADHLNSTNHAIVQTLVNSV
modifications: disulfides C8-C9 (intra)
- Kd [7]: 31.8 nM
- Kd [2]: 31.8 nM

B18: SEQ ID NO: 284, cysteine pairs C59-C59^b, C8-C43^a, C9-C41^a, C88-C92^a (designed binder)
chain: NSKIPKACCVPTELSAISMLYLDENEKVVLKNYQDMVVEGCGCRAQAKHKQRKRLKSSCKRHPLYVDFSDVGWNDWIVAPPGYHAFYCHGECPFPLADHLNSTNHAIVQTLVNSV
modifications: disulfides C59-C59 (inter), C8-C43 (intra), C9-C41 (intra), C88-C92 (intra)
notes: as for B2
- Kd [9]: 6.88 nM
- Kd [2]: 6.88 nM
